{
  "source": "patent US6713276B2",
  "about": "“Modulation of Aβ levels by β-secretase BACE2” (Scios, Inc., priority 2000, dated 2004)",
  "key": {"APP751sw": {"test_system": "APP751sw", "assay": "cell-free β-secretase assay, β-NTF ELISA, APP751sw substrate", "assay_type": "biochemical, human", "conditions": "membrane extracts of transfected HEK293 cells, pH 4.5, 37° C.", "procedure": "The β-secretase assay consists of two different parts, an incubation or reaction phase to generate β-NTF and an ELISA part to capture and measure the β-NTF generated by β-secretase. The β-secretase ELISA was performed as follows. Each well of a 96 well plate containing a flat bottom (high protein binding, Corning, N.Y.) was coated with 100 μl of the monoclonal capture antibody 8E5 (at ˜8-10 μg/ml) (Johnson-Wood et al. Proc. Natl. Acad. Sci. USA 94: 1550-1555 [1997]). The plate was then covered with parafilm and incubated overnight at 4° C. or alternatively for 2 hours at 37° C. […]\nOne hundred μl of a 1:5000 dilution of a goat anti rabbit IgG-HRP in Antibody-Conjugate Buffer was then added to each well, and the plate incubated at room temperature for one hour. […] After sufficient blue color had developed, the reactions were stopped by adding 100 μl of 5N H2SO4 to each well, and the amount of βNTF was determined by reading the plate at 450 nm in a Softmax spectrophotometer.\nEqual amounts of membrane extracts from either mock, BACE or BACE2 transfected HEK293 cells were incubated with partially purified full length APP751 sw or APP751wt for the indicated times. The formation of β-NTF was then determined using the respective β-NTF specific ELISA as described in General Methodology."}, "[1]": {"test_system": "APP751sw processing in HEK293T cells", "assay": "co-transfection with APP751sw in HEK293T cells, ELISA of conditioned medium", "assay_type": "cell-based, human", "procedure": "Expression vectors containing BACE and BACE2 cDNAs were transfected into HEK293T cells in the presence of APP751sw or CT100 (Shoji et al., Science 258: 126-129 [1992]; Lichtenthaler et al., Proc. Natl. Acad. Sci. USA 96: 3053-3058 [1999]). Transfections were performed in 24 well plates using Lipofectamine Plus (Gibco/BRL, Bethesda, Md.) and DNA concentrations were kept constant by including non-specific DNA. Expression plasmids were tested for BACE and BACE2 expression by Western blotting. Cell culture supernatants were collected 48 hours and 72 hours post-transfection, and assayed for α-NTF, β-NTF and Aβ formation. β-NTF measurement was performed as described below. α-NTF was captured like β-NTF but was detected with biotinylated 2H3 (Johnson-Wood et al., Proc. Nati. Acad. Sci. USA 94: 1550-1555 [1997]). Aβ levels were determined by an ELISA using monoclonal antibodies 266 for capture and biotinylated 3D6 for detection (see Johnson-Wood et al., [1997] ibid for antibody epitope description). Aβ42, in contrast, was captured using 21F 12 and detected with biotinylated 3D6. Cell extracts prepared 72 hour post-transfection were separated by SDS-PAGE (Novex) and probed with CT695 (Zymed) for APP and CTFs as well as with an Aβ specific monoclonal antibody WO2 (kindly provided by K. Beyreuther; Ida et al., J. Biol. Chem. 271: 22908-22914 [1996]). Alternatively, co-transfection experiments using APP751sw and BACE or BACE2 were performed in the human neuroblastoma cell line, SK-N-MC, available from the American Type Culture Collection (ATCC).\nGiven the ability of BACE2 to cleave APP at the β-secretase site in vitro, we investigated the role of BACE2 in HEK293T cells relative to BACE. Variable amounts of BACE2 or BACE expression plasmids were co-transfected with constant amount of DNA encoding APP751sw substrate cDNA. Cell supernatants were collected 48 hours or 72 hours post-transfection and analyzed for α-NTF, β-NTF, total Aβ and Aβ42 as described in Genenral Methodology. Expression of APP751 sw alone led to a significant increase in β-NTF, α-NTF, total Aβ and Aβ42 (FIGS. 2a-d) compared to mock-transfected cells. […] This was most likely due to the fact that overexpressed APP751sw was in excess and was already very efficiently cleaved by endogenous BACE (compare mock versus APP751 sw alone). BACE effects on Aβ formation have been reported to be variable (Vassar et al., [1999] ibid; Sinha et al,[1999] ibid; Hussain et al., [1999] ibid; Yan et al, [1999] ibid; Lin et al,[2000] ibid) and thus it appears that additional factors such as γ-secretase might become limiting.\nIn an independent experiment, we addressed whether BACE2 competed with the ability of BACE to cleave APP at the β-secretase site. HEK293T cells were co-transfected with constant amounts of APP751sw and BACE, and increasing levels of BACE2. β-NTF and Aβ levels were then measured in culture supernatant (FIG. 3). […] BACE and BACE2 appeared to compete for the substrate and thus the effect on β-NTF might rather be steric. In particular, if BACE2 is a less efficient β-secretase in competing with BACE for substrate, it would reduce the overall β-secretase cleavage efficiency (see also FIG. 4). However, this reduction is insufficient to account for the Aβ reduction with BACE2."}},
  "data": [
    {"molecule": "BACE2: human aspartyl protease, close homolog of BACE (SEQ ID NO: 2), expressed from pcDNA3.1(−)/BACE2 in transfected cells (protein) MGALARALLLPLLAQWLLRAAPELAPAPFTLPLRVAAATNRVVAPTPGPGTPAERHADGLALALEPALASPAGAANFLAMVDNLQGDSGRGYYLEMLIGTPPQKLQILVDTGSSNFAVAGTPHSYIDTYFDTERSSTYRSKGFDVTVKYTQGSWTGFVGEDLVTIPKGFNTSFLVNIATIFESENFFLPGIKWNGILGLAYATLAKPSSSLETFFDSLVTQANIPNVFSMQMCGAGLPVAGSGTNGGSLVLGGIEPSLYKGDIWYTPIKEEWYYQIEILKLEIGGQSLNLDCREYNADKAIVDSGTTLLRLPQKVFDAVVEAVARASLIPEFSDGFWTGSQLACWTNSETPWSYFPKISIYLRDENSSRSFRITILPQLYIQPMMGAGLNYECYRFGISPSTNALVIGATVMEGFYVIFDRAQKRVGFAASPCAEIAGAAVSEISGPFSTEDVASNCVPAQSLSEPILWIVSYALMSVCGAILLVLIVLLLLPFRCQRRPRDPEVVNDESSLVRHRWK", "values": [
      {"measurement": "β-NTF formation (β-secretase cleavage in vitro)", "setting": "APP751sw", "result": "time-dependent increase in β-NTF formation"},
      {"measurement": "Aβ42 in conditioned medium", "setting": "[1]; co-transfected with APP751sw", "result": "striking reduction of total Aβ and Aβ42 to levels found in mock-transfected cells"},
      {"measurement": "total Aβ in conditioned medium", "setting": "[1]; co-transfected with APP751sw", "result": "striking reduction of total Aβ and Aβ42 to levels found in mock-transfected cells"},
      {"measurement": "α-NTF levels in conditioned medium", "setting": "[1]; co-transfected with APP751sw", "result": "slightly higher levels of α-NTF in conditioned medium from BACE2 versus BACE transfected cells"},
      {"measurement": "β-NTF levels in conditioned medium", "setting": "[1]; co-transfected with APP751sw", "result": "the effect on β-NTF levels was very similar to that of BACE"},
      {"measurement": "total OD of α-NTF plus β-NTF", "setting": "[1]; co-transfected with APP751sw, APP751sw alone ~2.59", "result": "~2.5", "unit": "OD"},
      {"measurement": "β-NTF formation in the presence of co-transfected BACE", "setting": "[1]; constant APP751sw and BACE", "result": "reduced the ability of BACE to form β-NTF in a dose-dependent manner"},
      {"measurement": "Aβ levels in the presence of co-transfected BACE", "setting": "[1]; constant APP751sw and BACE, increasing BACE2", "result": "dramatic dose-dependent reduction in Aβ levels"}
    ]},
    {"molecule": "BACE2 D110A: single D110A BACE2 mutant of a critical aspartate residue, made by site-directed mutagenesis (protein) ALEPALASPAGAANFLAMVDNLQGDSGRGYYLEMLIGTPPQKLQILVATGSSNFAVAGTPHSYIDTYFDTERSSTYRSKGFDVTVKYTQGSWTGFVGEDLVTIPKGFNTSFLVNIATIFESENFFLPGIKWNGILGLAYATLAKPSSSLETFFDSLVTQANIPNVFSMQMCGAGLPVAGSGTNGGSLVLGGIEPSLYKGDIWYTPIKEEWYYQIEILKLEIGGQSLNLDCREYNADKAIVDSGTTLLRLPQKVFDAVVEAVARASLIPEFSDGFWTGSQLACWTNSETPWSYFPKISIYLRDENSSRSFRITILPQLYIQPMMGAGLNYECYRFGISPSTNALVIGATVMEGFYVIFDRAQKRVGFAASPCAEIAGAAVSEISGPFSTEDVASNCVPAQSLSEPILWIVSYALMSVCGAILLVLIVLLLLPFRCQRRPRDPEVVNDESSLVRHRWK", "values": [
      {"measurement": "β-NTF formation (β-secretase cleavage in vitro)", "setting": "APP751sw", "result": "lost their ability to cleave at the β-secretase site in vitro"},
      {"measurement": "Aβ production (total Aβ, Aβ42) with aspartate mutant", "setting": "[1]; co-transfected with APP751sw or CT100", "result": "clearly reversed the suppression of Aβ production"},
      {"measurement": "β-NTF formation in the presence of co-transfected BACE", "setting": "[1]; constant APP751sw and BACE", "result": "compete as well if not slightly more effectively with BACE to form β-NTF"}
    ]}
  ]
}
